Read-outs that look alike come from different tables or passages of the source.
Key:
hCCR8 (I20A) = target: T1, hCCR8 (I20A) (human, UniProt P51685 1-355); assay: flow cytometry, transfected Expi293 cells
T1 construct: also called hCCR8 (120A)
Description: (§1) In addition to the chimeras of human CCR4 and the point mutants at the N-terminal region of human CCR8 produced in Example 3, binding evaluation was also performed for point mutants at loop1 and loop2 regions of human CCR8. […] After reacting at room temperature for 3 hours, it was reacted with Alexa488-labeled Anti-human IgG antibody (Thermo Fisher Scientific) and flow cytometry analysis was performed.
(§2) In comparison to human CCR8, a mutant having binding activity of 70% or less was indicated as Δ and a mutant having binding activity of 20% or less was indicated as x.

hCCR8 (L29A) = hCCR8 (L29A) (human, UniProt P51685 1-355); assay: flow cytometry, transfected Expi293 cells
Description: as §1, §2

loop1 hCCR4-hCCR8 [1] = target: T2, loop1 hCCR4-hCCR8 (human, UniProt P51685 1-355); assay: flow cytometry, transfected Expi293 cells
T2 construct: chimera on Expi293 cells; hCCR8 ranges derived; also called loop 1-human CCR4-substituted human CCR8
Description: as §1, §2

hCCR8 (T13A) = hCCR8 (T13A) (human, UniProt P51685 1-355); assay: flow cytometry, transfected Expi293 cells
Description: as §1, §2

hCCR8 (K35A) [2] = target: T3, hCCR8 (K35A) (human, UniProt P51685 1-355); assay: flow cytometry, transfected Expi293 cells
Description: as §1, §2

hCCR8 (S22A) = hCCR8 (S22A) (human, UniProt P51685 1-355); assay: flow cytometry, transfected Expi293 cells
Description: as §1, §2

hCCR8 (K193A) = hCCR8 (K193A) (human, UniProt P51685 1-355); assay: flow cytometry, transfected Expi293 cells
Description: as §1, §2

hCCR8 (L181A) = hCCR8 (L181A) (human, UniProt P51685 1-355); assay: flow cytometry, transfected Expi293 cells
Description: as §1, §2

hCCR8 (Y15A) = hCCR8 (Y15A) (human, UniProt P51685 1-355); assay: flow cytometry, transfected Expi293 cells
Description: as §1, §2

hCCR8 (T11A) = hCCR8 (T11A) (human, UniProt P51685 1-355); assay: flow cytometry, transfected Expi293 cells
Description: as §1, §2

hCCR8 (T10A) = hCCR8 (T10A) (human, UniProt P51685 1-355); assay: flow cytometry, transfected Expi293 cells
Description: as §1, §2

hCCR8 (S23A) = hCCR8 (S23A) (human, UniProt P51685 1-355); assay: flow cytometry, transfected Expi293 cells
Description: as §1, §2

loop3 hCCR4-hCCR8 = target: T4, loop3 hCCR4-hCCR8 (human, UniProt P51685 1-355); assay: flow cytometry, transfected Expi293 cells
T4 construct: chimera on Expi293 cells; hCCR8 ranges derived
Description: as §1, §2

loop2 hCCR4-hCCR8 [3] = target: T5, loop2 hCCR4-hCCR8 (human, UniProt P51685 1-355); assay: flow cytometry, transfected Expi293 cells
T5 construct: chimera on Expi293 cells; hCCR8 ranges derived; also called loop2-human CCR4-substituted human CCR8
Description: as §1, §2

hCCR8 (N188A) = hCCR8 (N188A) (human, UniProt P51685 1-355); assay: flow cytometry, transfected Expi293 cells
Description: as §1, §2

hCCR8 (L5A) = target: T6, hCCR8 (L5A) (human, UniProt P51685 1-355); assay: flow cytometry, transfected Expi293 cells
T6 construct: also called hCCR8 (LSA)
Description: as §1, §2

human CCR8 [4] = target: T7, human CCR8 (human, UniProt P51685 1-355); assay: cell-based or functional assay
human CCR8 [5] = target: T7, human CCR8; assay: cell-based or functional assay; remark: listed apart in the source
loop1 hCCR4-hCCR8 [6] = target: T2, loop1 hCCR4-hCCR8; assay: flow cytometry, transfected Expi293 cells; Δ = significantly reduced vs hCCR8
loop2 hCCR4-hCCR8 [7] = target: T5, loop2 hCCR4-hCCR8; assay: as above
hCCR8 (K35A) [8] = target: T3, hCCR8 (K35A); assay: flow cytometry, transfected Expi293 cells; remark: listed apart in the source
mouse CCR8 = target: T8, mouse CCR8 (mouse, UniProt P56484 1-353); assay: flow cytometry, transfected Expi293 cells
T8 construct: also called mCCR8
T8 sequence: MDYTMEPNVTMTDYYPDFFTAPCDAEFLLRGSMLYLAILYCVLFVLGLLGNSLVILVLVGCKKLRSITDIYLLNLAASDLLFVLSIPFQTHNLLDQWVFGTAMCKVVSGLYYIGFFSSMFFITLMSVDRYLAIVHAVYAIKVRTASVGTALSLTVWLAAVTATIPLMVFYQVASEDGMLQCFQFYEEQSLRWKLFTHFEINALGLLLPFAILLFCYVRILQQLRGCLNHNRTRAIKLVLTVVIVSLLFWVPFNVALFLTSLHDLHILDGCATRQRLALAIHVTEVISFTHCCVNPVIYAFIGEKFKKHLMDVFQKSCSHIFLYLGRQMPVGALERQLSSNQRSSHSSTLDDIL

N-ter hCCR4-hCCR8 = target: T9, N-ter hCCR4-hCCR8 (human); assay: flow cytometry, transfected Expi293 cells
T9 construct: chimera on Expi293 cells; remaining hCCR8 ranges derived from the stated swapped ranges and the 355-residue length; also called N-terminal region human CCR4-substituted human CCR8
T9 chain: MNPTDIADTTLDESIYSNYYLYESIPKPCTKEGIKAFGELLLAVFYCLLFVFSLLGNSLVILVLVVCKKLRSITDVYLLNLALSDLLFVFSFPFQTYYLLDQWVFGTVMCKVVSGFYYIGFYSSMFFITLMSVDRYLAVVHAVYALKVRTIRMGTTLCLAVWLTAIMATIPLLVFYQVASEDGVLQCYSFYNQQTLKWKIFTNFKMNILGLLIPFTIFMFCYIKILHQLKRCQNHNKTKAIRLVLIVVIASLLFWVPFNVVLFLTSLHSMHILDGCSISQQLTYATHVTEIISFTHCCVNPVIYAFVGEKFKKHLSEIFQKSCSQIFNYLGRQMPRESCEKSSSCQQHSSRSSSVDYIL

hCCR8 (Y17A) = hCCR8 (Y17A) (human, UniProt P51685 1-355); assay: flow cytometry, transfected Expi293 cells
human CCR4 = target: T10, human CCR4 (human, UniProt P51679 1-360); assay: flow cytometry, transfected Expi293 cells
T10 construct: also called hCCR4
T10 sequence: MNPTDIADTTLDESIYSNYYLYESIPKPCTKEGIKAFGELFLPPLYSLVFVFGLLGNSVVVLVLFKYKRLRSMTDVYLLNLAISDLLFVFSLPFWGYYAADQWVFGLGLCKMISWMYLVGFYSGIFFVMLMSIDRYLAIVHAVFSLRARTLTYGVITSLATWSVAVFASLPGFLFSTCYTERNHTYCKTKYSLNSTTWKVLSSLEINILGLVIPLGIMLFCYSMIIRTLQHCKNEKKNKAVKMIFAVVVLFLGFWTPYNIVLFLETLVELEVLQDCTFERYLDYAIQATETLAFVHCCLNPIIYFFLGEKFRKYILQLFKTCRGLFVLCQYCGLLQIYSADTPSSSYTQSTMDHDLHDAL

human CCR8 [9] = target: T7, human CCR8; assay: cell-based or functional assay; remark: listed apart in the source
hCCR8 (T32A) = target: T11, hCCR8 (T32A) (human, UniProt P51685 1-355); assay: flow cytometry, transfected Expi293 cells
T11 construct: also called hCCR8 (132A)
Description: as §1, §2

hCCR8 (D97A) = hCCR8 (D97A) (human, UniProt P51685 1-355); assay: flow cytometry, transfected Expi293 cells
Description: as §1, §2

hCCR8 (V180A) = hCCR8 (V180A) (human, UniProt P51685 1-355); assay: flow cytometry, transfected Expi293 cells
Description: as §1, §2

human CCR8 [10] = target: T7, human CCR8; assay: cell-based or functional assay; remark: listed apart in the source
human CCR8 [11] = target: T7, human CCR8; assay: cell-based or functional assay; remark: listed apart in the source

T7 sequence (P51685 whole entry): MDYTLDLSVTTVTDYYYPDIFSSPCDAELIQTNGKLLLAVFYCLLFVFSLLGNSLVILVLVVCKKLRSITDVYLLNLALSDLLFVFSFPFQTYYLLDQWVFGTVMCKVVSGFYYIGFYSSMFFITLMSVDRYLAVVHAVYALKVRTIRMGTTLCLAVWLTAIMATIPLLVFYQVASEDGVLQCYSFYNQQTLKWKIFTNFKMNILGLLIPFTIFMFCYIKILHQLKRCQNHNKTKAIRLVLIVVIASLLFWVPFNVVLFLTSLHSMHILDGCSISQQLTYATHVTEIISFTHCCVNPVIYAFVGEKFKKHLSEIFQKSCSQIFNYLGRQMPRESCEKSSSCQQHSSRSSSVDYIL
hCCR8 (Y17A), sequence (P51685 whole entry Y17A): as the sequence (P51685 whole entry) above, with Y17A counted along it

B1: h19D7 (IGKV3-20/IGHV3-15 T94R) (antibody, V domains shown)
VH: EVQLVESGGALVKPGGSLRLSCAASGFTFSTYAMYWVRQAPGKGLEWVGRIRSKSNNYATYYADSVKDRFTISRDDSKNTLYLQMNSLKTEDTAVYYCTRGGYGNYRYAMDYWGQGTTVTVSS
VL: EIVLTQSPGTLSLSPGERATLSCRSSKSLLHSNGNTYLYWYQQKPGQAPRLLIYRVSNLASGIPDRFSGSGSGTDFTLTISRLEPEDFAVYYCMQHLEYPFTFGQGTKLEIK
notes: humanized; detected with anti-human IgG
- binding activity in comparison to human CCR8 (hCCR8 (I20A)): ≤ 70%
- binding activity in comparison to human CCR8 (hCCR8 (L29A)): ≤ 70%
- binding activity in comparison to human CCR8 (loop1 hCCR4-hCCR8 [1]): ≤ 70%
- binding activity in comparison to human CCR8 (hCCR8 (T13A)): ≤ 70%
- binding activity in comparison to human CCR8 (hCCR8 (K35A) [2]): ≤ 70%
- binding activity in comparison to human CCR8 (hCCR8 (S22A)): ≤ 70%
- binding activity in comparison to human CCR8 (hCCR8 (K193A)): ≤ 70%
- binding activity in comparison to human CCR8 (hCCR8 (L181A)): ≤ 70%
- binding activity in comparison to human CCR8 (hCCR8 (Y15A)): ≤ 70%
- binding activity in comparison to human CCR8 (hCCR8 (T11A)): ≤ 70%
- binding activity in comparison to human CCR8 (hCCR8 (T10A)): ≤ 70%
- binding activity in comparison to human CCR8 (hCCR8 (S23A)): ≤ 70%
- binding activity in comparison to human CCR8 (loop3 hCCR4-hCCR8): ≤ 70%
- binding activity in comparison to human CCR8 (loop2 hCCR4-hCCR8 [3]): ≤ 70%
- binding activity in comparison to human CCR8 (hCCR8 (N188A)): ≤ 70%
- binding activity in comparison to human CCR8 (hCCR8 (L5A)): ≤ 70%

B2: 1H4 (antibody, V domains shown)
VH: EVQLVESGGRLVQPKGSLKLSCAASGFTFNTYAMYWIRQAPGKGLEWVARIRSKSNNYATYYADSVKDRFTISRDDSQSMLYLQMNNLKTEDTAMYYCVRARFYYSDYGYAMDYWGQGTSVTVSS
VL: DIVMTQAAPSVPVTPGESVSISCRSSKSLLHSNGNTYLYWFLQRPGQSPQLLIYRMSNLASGVPDRFSASGSGTAFTLRISRVEAEDVGVYYCMQHLEYPLTFGAGTKLELKR
notes: mouse hybridoma antibody
- Neutralizing Activity IC50 (nM), Ca2+ influx by 100 nM hCCL1 (human CCR8 [4]): 0.32 nM
- IC50 (nM), Ca2+ influx by 200 nM hCCL1 (human CCR8 [5]): 0.36 nM
- binding result (loop1 hCCR4-hCCR8 [6]): binds
- binding result (loop2 hCCR4-hCCR8 [7]): binds
- binding result (hCCR8 (K35A) [8]): no binding
- binding result (mouse CCR8): no binding
- binding result (N-ter hCCR4-hCCR8): no binding
- binding result (hCCR8 (Y17A)): no binding
- binding result (human CCR4): no binding

B3: h10A11 (IGKV4-1/IGHV3-15 T94R) (antibody, V domains shown)
VH: EVQLVESGGALVKPGGSLRLSCAASGFTFSTYALYWVRQAPGKGLEWVGRIRSKSNNYATYYADSVKDRFTISRDDSKNTLYLQMNSLKTEDTAVYYCTRARFYYSDYGYAMDYWGQGTLVTVSS
VL: DIVMTQSPDSLAVSLGERATINCRSSKSLLHSNGNTYLYWYQQKPGQPPKLLIYRMSNLASGVPDRFSGSGSGTDFTLTISSLQAEDVAVYYCMQHLEYPLTFGQGTKLEIKR
notes: humanized; detected with anti-human IgG; also called humanized 10A11 antibody (light chain variable region: IGKV4-1/heavy chain variable region: IGHV3-15 T94R)
- IC50 (nM), Ca2+ influx by 200 nM hCCL1 (human CCR8 [9]): 0.15 nM
- binding activity in comparison to human CCR8 (hCCR8 (I20A)): ≤ 70%
- binding activity in comparison to human CCR8 (loop1 hCCR4-hCCR8 [1]): ≤ 70%
- binding activity in comparison to human CCR8 (hCCR8 (K35A) [2]): ≤ 70%
- binding activity in comparison to human CCR8 (hCCR8 (S22A)): ≤ 70%
- binding activity in comparison to human CCR8 (hCCR8 (T32A)): ≤ 70%
- binding activity in comparison to human CCR8 (hCCR8 (L181A)): ≤ 70%
- binding activity in comparison to human CCR8 (hCCR8 (D97A)): ≤ 70%
- binding activity in comparison to human CCR8 (hCCR8 (V180A)): ≤ 70%
- binding activity in comparison to human CCR8 (loop2 hCCR4-hCCR8 [3]): ≤ 70%
- binding activity in comparison to human CCR8 (hCCR8 (N188A)): ≤ 70%
- binding activity in comparison to human CCR8 (hCCR8 (L5A)): ≤ 70%
- IC50 ratio (WT IC50/mutant IC50) (human CCR8 [10]): 1 ratio

B4: h10A11 (IGKV4-1/IGHV3-73) (antibody, V domains shown)
VH: EVQLVESGGGLVQPGGSLKLSCAASGFAFNTYALYWVRQASGKGLEWVGRIRSKSNNYATYYADSVKDRFTISRDDSKNTAYLQMNSLKTEDTAVYYCTRARFYYSDYGYAMDYWGQGTLVTVSS
VL: DIVMTQSPDSLAVSLGERATINCRSSKSLLHSNGNTYLYWYQQKPGQPPKLLIYRMSNLASGVPDRFSGSGSGTDFTLTISSLQAEDVAVYYCMQHLEYPLTFGQGTKLEIKR
- IC50 (nM), Ca2+ influx by 200 nM hCCL1 (human CCR8 [9]): 0.17 nM
- IC50 ratio (WT IC50/mutant IC50) (human CCR8 [11]): 1 ratio
